Data on 37 sequences can be found in the Immune Epitope Database (IEDB).

Some targets named below: HLA-A*02:03; HLA-A*02:02; HLA-A*02:06.
What all share (test): IEDB peptide-MHC binding, purified MHC/competitive/radioactivity; filed as Kd, often an IC50 or EC50 that approximates it; ≥ and ≤ were set here for values at or beyond the usual limits of such assays
[1] abbreviates: source organism: Vaccinia virus WR.
[2] abbreviates: source organism: Dengue virus 4 Philippines/H241/1956.
The mark [3] stands for this setting: source organism: Mammarenavirus juninense.
[4] abbreviates: source organism: SARS coronavirus Tor2.
The mark [5] stands for this setting: source organism: Lassa virus Josiah.
[6] abbreviates: source organism: Lymphocytic choriomeningitis virus (strain Armstrong).

Consider GLDERFVEEL, for which the Kd came to 1210 nM with HLA-A*02:03 (setting [1]), 93 nM with HLA-A*02:02 (setting [1]) and 2520 nM with HLA-A*02:06 (setting [1]).
For TQLFKYVPSA the same measures were at least 70400 nM, at least 70000 nM and at least 69800 nM.
Turning to RTNDLTALL, the Kd came out at 7.23 nM with HLA-A*02:03 (setting [1]), 3.66 nM in the assay with HLA-A*02:02 (setting [1]) and 119 nM with HLA-A*02:06 (setting [1]).
For the sequence MMILPAALA, the Kd with HLA-A*02:03 (source organism: Dengue virus 3 Sri Lanka/1266/2000) was 46.4 nM.
Take LLENKSLTIL: the Kd with HLA-A*02:03 (setting [1]) was found to be 541 nM; in the assay with HLA-A*02:02 (setting [1]), 185 nM; in the assay with HLA-A*02:06 (setting [1]) it was 7430 nM.
For ALKNSQAELT the same measures were 980 nM, 2120 nM and at least 27200 nM.
For ETAIRAGYSI the same measures were at least 29300 nM, at least 25800 nM and 17800 nM.
As for AAKTPVIVV, the dissociation constant Kd is 1630 nM with HLA-A*02:03 (setting [1]), 1360 nM with HLA-A*02:02 (setting [1]) and at least 25400 nM with HLA-A*02:06 (setting [1]).
For RVSENTGMGM the same measures were 88.9 nM, 839 nM and 146 nM.
In the same order, the values of SLTTIGTIA are 3.69 nM, 1.04 nM and 489 nM.
In the same order, the values of ILKDPRIASI are 1030 nM, 3160 nM and 4000 nM.
As to LVVVTTLCAI, the dissociation constant Kd with HLA-A*02:06 (setting [2]) stood at 91.2 nM.
Take CLLTDTIESA: the Kd in the assay with HLA-A*02:03 (setting [1]) was 102 nM; with HLA-A*02:02 (setting [1]), 53 nM; in the assay with HLA-A*02:06 (setting [1]) it was 92.1 nM.
In the same order, the values of KTRLFRSPQV are 984 nM, 9270 nM and 433 nM.
For FTSYKRFVT the same measures were 3380 nM, 2330 nM and 12400 nM.
In the same order, the values of VIKLVKSLV are 126 nM, 1030 nM and 4120 nM.
For the sequence NTDHPLSINV, the equilibrium dissociation constant (Kd) stood at 583 nM with HLA-A*02:03 (setting [1]), 388 nM with HLA-A*02:02 (setting [1]) and 1.64 nM in the assay with HLA-A*02:06 (setting [1]).
As for CNYTKFWYV, the equilibrium dissociation constant (Kd) in the assay with HLA-A*02:03 (setting [3]) is 794 nM; with HLA-A*02:02 (setting [3]), 1940 nM; with HLA-A*02:06 (setting [3]) it was 34.5 nM.
For the sequence ALMTLDDLAI, the Kd was determined as 29.3 nM with HLA-A*02:03 (setting [1]), 14.2 nM with HLA-A*02:02 (setting [1]) and 24.1 nM with HLA-A*02:06 (setting [1]).
With AIMTRCLAV, the dissociation constant (Kd) with HLA-A*02:03 (setting [4]) is 14.7 nM; with HLA-A*02:02 (setting [4]) it was 51.5 nM; with HLA-A*02:06 (setting [4]), 26.8 nM.
As to YCSNIKLQVV, the equilibrium dissociation constant (Kd) was determined as 801 nM with HLA-A*02:03 (setting [5]), 1230 nM with HLA-A*02:02 (setting [5]) and 7120 nM in the assay with HLA-A*02:06 (setting [5]).
For TILDDNLYKV, the equilibrium dissociation constant (Kd) in the assay with HLA-A*02:03 (setting [1]) was determined as 1630 nM; in the assay with HLA-A*02:02 (setting [1]) it was 1080 nM; with HLA-A*02:06 (setting [1]), 48.8 nM.
In the same order, the values of GLSSGFYFEI are 782 nM, 48.3 nM and 1730 nM.
For NQILEENMEV, the Kd with HLA-A*02:06 (setting [2]) is 29.1 nM.
On to IMKDGREIV, for which the Kd in the assay with HLA-A*02:03 (source organism: Dengue virus 1 Brazil/97-11/1997) worked out at 110 nM.
In the case of ITRLEVIGL, the Kd came out at 213 nM with HLA-A*02:03 (setting [1]), 5510 nM with HLA-A*02:02 (setting [1]) and 776 nM with HLA-A*02:06 (setting [1]).
For YAAEMVEYL the same measures were 2.07 nM, 0.524 nM and 11.8 nM.
For AARLKRSAT, the Kd in the assay with HLA-A*02:03 (setting [1]) was 10500 nM; with HLA-A*02:02 (setting [1]), 12500 nM; in the assay with HLA-A*02:06 (setting [1]) it was at least 63400 nM.
Take RNHLRDLMGV: the values for the Kd with HLA-A*02:03 (setting [6]), with HLA-A*02:02 (setting [6]) and with HLA-A*02:06 (setting [6]) were 733 nM, 428 nM and 107 nM, respectively.
Consider DIMLPESDL, for which the Kd was at least 35800 nM with HLA-A*02:03 (setting [1]), 18500 nM in the assay with HLA-A*02:02 (setting [1]) and at least 31600 nM with HLA-A*02:06 (setting [1]).
With FLAFVVFLLV, the equilibrium dissociation constant (Kd) worked out at 211 nM with HLA-A*02:03 (setting [4]), 2.36 nM with HLA-A*02:02 (setting [4]) and 2980 nM with HLA-A*02:06 (setting [4]).
Turning to AVYFKAKWLT, the dissociation constant Kd in the assay with HLA-A*02:03 (setting [1]) was 8930 nM; with HLA-A*02:02 (setting [1]), at least 27200 nM; with HLA-A*02:06 (setting [1]) it was 8710 nM.
In the same order, the values of VIRHVDGKI are 978 nM, 8550 nM and 9270 nM.
In the same order, the values of DMDFDLNIFM are at least 5000 nM, 1150 nM and 5310 nM.
Regarding NQAVVLMGL, the Kd in the assay with HLA-A*02:06 (source organism: Dengue virus 3 Martinique/1243/1999) came to 88.4 nM.
CVKYLLDNDI: the Kd with HLA-A*02:03 (setting [1]) is 5670 nM; with HLA-A*02:02 (setting [1]) it was at least 31800 nM; with HLA-A*02:06 (setting [1]), 7580 nM.
Take IVAALVFLI: the Kd was found to be 15.5 nM with HLA-A*02:03 (setting [4]), 0.138 nM in the assay with HLA-A*02:02 (setting [4]) and 1.81 nM with HLA-A*02:06 (setting [4]).
